We go through one protein from FireProtDB (doi:10.1074/jbc.270.30.17712).

The conditions of this series: Escherichia coli (strain K12); pH 7.8; 23 °C; Urea; Absorbance; Potassium phosphate 10 mM; transition: 3; reversible: yes; whole UniProt chain shown.

“And” between values parts separate entries of the source, which are not always exact repeats. Equal values may be shown once.

B1: Tryptophan synthase alpha chain wild type, P0A877 (protein)
chain: MERYESLFAQLKERKEGAFVPFVTLGDPGIEQSLKIIDTLIEAGADALELGIPFSDPLADGPTIQNATLRAFAAGVTPAQCFEMLALIRQKHPTIPIGLLMYANLVFNKGIDEFYAQCEKVGVDSVLVADVPVEESAPFRQAALRHNVAPIFICPPNADDDLLRQIASYGRGYTYLLSRAGVTGAENRAALPLNHLVAKLKEYNAAPPLQGFGISAPDQVKAAIDAGAAGAISGSAIVKIIEQHINEPEKMLAALKVFVQPMKAATRS
Consider B1, for which the denaturant m value is 2.5 kcal/mol/M and 1.4 kcal/mol/M; the “denaturant midpoint (higher = more stable)” value was 2.51 M and 3.73 M; the unfolding free energy was 6.4 kcal/mol and 5.2 kcal/mol.
